B1: HALO-SOX18 (protein)
chain: MQRSPPGYGAQDDPPSRRDCAWAPGIGAAAEARGLPVTNVSPTSPASPSSLPRSPPRSPESGRYGFGRGERQTADELRIRRPMNAFMVWAKDERKRLAQQNPDLHNAVLSKMLGKAWKELNTAEKRPFVEEAERLRVQHLRDHPNYKYRPRRKKQARKVRRLEPGLLLPGLVQPSAPPEAFAAASGSARSFRELPTLGAEFDGLGLPTPERSPLDGLEPGEASFFPPPLAPEDCALRAFRAPYAPELARDPSFCYGAPLAEALRTAPPAAPLAGLYYGTLGTPGPFPNPLSPPPESPSLEGTEQLEPTADLWADVDLTEFDQYLNCSRTRPDATTLPYHVALAKLGPRAMSCPEESSLISALSDASSAVYYSACISG
B2: HALO-SOX18 (natural protein, UniProt P43680 1-377, looked up)
chain: MQRSPPGYGAQDDPPSRRDCAWAPGIGAAAEARGLPVTNVSPTSPASPSSLPRSPPRSPESGRYGFGRGERQTADELRIRRPMNAFMVWAKDERKRLAQQNPDLHNAVLSKMLGKAWKELNTAEKRPFVEEAERLRVQHLRDHPNYKYRPRRKKQARKVRRLEPGLLLPGLVQPSAPPEAFAAASGSARSFRELPTLGAEFDGLGLPTPERSPLDGLEPGEASFFPPPLAPEDCALRAFRAPYAPELARDPSFCYGAPLAEALRTAPPAAPLAGLYYGTLGTPGPFPNPLSPPPESPSLEGTEQLEPTADLWADVDLTEFDQYLNCSRTRPDATTLPYHVALAKLGPRAMSCPEESSLISALSDASSAVYYSACISG
modifications: JF549 and/or JF646 Halo-tag dye on the HaloTag
notes: SOX18 wild type from the plasmid pReceiver-M49(HaloTag-SOX18) of GeneCopoeia; In the functional row with MEF2C the protein was untagged-SOX18 from the same plasmid without the HaloTag; also called HaloTag-SOX18; pReceiver-M49(HaloTag-SOX18); source: HeLa, transiently transfected, in living cells

What was measured:
[1] = molecular target: T1, SOX7-eGFP, Q9BT81; test: cross-raster image correlation spectroscopy (cRICS); living HeLa cell nuclei, 37°C, transiently transfected; two colours (JF549 + JF646 on HaloTag, eGFP + JF646, or snap646 + JF549); fraction of molecules that move together; conditions: other: cross-raster image correlation spectroscopy (cRICS)
T1 chain: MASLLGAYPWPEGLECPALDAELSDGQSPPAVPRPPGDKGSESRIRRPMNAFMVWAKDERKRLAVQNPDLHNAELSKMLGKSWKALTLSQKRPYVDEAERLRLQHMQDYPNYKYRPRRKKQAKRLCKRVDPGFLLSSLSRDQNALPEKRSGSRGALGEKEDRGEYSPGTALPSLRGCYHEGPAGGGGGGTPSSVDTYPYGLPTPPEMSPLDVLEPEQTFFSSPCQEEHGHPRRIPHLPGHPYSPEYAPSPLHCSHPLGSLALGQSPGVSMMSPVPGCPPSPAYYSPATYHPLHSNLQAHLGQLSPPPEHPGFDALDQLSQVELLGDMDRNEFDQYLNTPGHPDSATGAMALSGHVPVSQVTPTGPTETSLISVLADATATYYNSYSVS

[2] = molecular target: the molecule itself; test: number and brightness (N&B); living HeLa cell nuclei, 37°C; cells with low to medium expression, 1 μM JF549 Halo-tag dye; monomer brightness calibrated on HALO-SOX7

| Protein | percent heterodimer [1] | stoichiometry N [2] |
| --- | --- | --- |
| B1 | SOX7/SOX18 (18.5%) |  |
| B2 |  | 2 |

— publication PMC8565327, “A dominant-negative SOX18 mutant disrupts multiple regulatory layers essential to transcription factor activity” (Nucleic Acids Research, 2021)
